According to US20190030114:

T1: striatal-enriched protein tyrosine phosphatase (STEP), P54830
T1 chain: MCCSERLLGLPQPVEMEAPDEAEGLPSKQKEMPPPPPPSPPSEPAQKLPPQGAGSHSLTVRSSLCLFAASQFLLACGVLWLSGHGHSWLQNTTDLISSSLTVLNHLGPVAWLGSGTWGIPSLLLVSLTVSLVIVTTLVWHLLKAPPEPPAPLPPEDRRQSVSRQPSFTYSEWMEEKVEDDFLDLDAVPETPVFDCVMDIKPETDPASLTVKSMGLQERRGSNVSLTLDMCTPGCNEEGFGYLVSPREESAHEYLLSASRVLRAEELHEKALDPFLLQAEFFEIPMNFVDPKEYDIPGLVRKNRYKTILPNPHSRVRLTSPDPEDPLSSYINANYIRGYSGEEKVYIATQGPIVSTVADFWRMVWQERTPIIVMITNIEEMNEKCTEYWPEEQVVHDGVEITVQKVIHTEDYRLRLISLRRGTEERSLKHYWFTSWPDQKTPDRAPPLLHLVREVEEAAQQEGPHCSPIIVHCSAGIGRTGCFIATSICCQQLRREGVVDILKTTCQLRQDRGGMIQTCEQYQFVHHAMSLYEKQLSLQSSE

B1: calpain-1 (µ-calpain), Mus musculus (protein)
chain: MTEELITPVYCTGVSAQVQKKRDKELGLGRHENAIKYLGQDYETLRARCLQSGVLFQDEAFPPVSHSLGFKELGPHSSKTYGIKWKRPTELMSNPQFIVDGATRTDICQGALGDCWLLAAIASLTLNETILHRVVPYGQSFQDGYAGIFHFQLWQFGEWVDVVIDDLLPTKDGKLVFVHSAQGNEFWSALLEKAYAKVNGSYEALSGGCTSEAFEDFTGGVTEWYDLQKAPSDLYQIILKALERGSLLGCSINISDIRDLEAITFKNLVRGHAYSVTGAKQVTYQGQRVNLIRMRNPWGEVEWKGPWSDSSYEWNKVDPYEREQLRVKMEDGEFWMSFRDFIREFTKLEICNLTPDALKSRTLRNWNTTFYEGTWRRGSTAGGCRNYPATFWVNPQFKIRLEEVDDADDYDNRESGCSFLLALMQKHRRRERRFGRDMETIGFAVYQVPRELAGQPVHLKRDFFLANASRAQSEHFINLREVSNRIRPPPGEYIVVPSTFEPNKEGDFLLRFFSEKKAGTQELDDQIQANLPDEKVLSEEEIDDNFKTLFSKLAGDDMEISVKELQTILNRIISKHKDLRTNGFSLESCRSMVNLMDRDGNGKLGLVEFNILWNRIRNYLTIFRKFDLDKSGSMSAYEMRMAIEAAGFKLNKKLHELIITRYSEPDLAVDFDNFVCCLVRLETMFRFFKLLDTDLNGVVTFDLFKWLQLTMFA
B2: calpain-2 (m-calpain), Mus musculus (protein)
chain: SHERAIKYLNQDYETLRNECLEAGALFQDPSFPALPSSLGYKELGPYSSKTRGIEWKRPTEICADPQFIIGGATRTDICQGALGDCWLLAAIASLTLNEEILARVVPPDQSFQENYAGIFHFQFWQYGEWVEVVVDDRLPTKDGELLFVHSAEGSEFWSALLEKAYAKINGCYETLSGGATTEGFEDFTGGIAEWYELRKPPPNLFKIIQKALEKGSLLGCSIDITSAADSEAVTYQKLVKGHAYSVTGAEEVESSGSLQKLIRIRNPWGQVEWTGKWNDNCPSWNTVDPEVRANLTERQEDGEFWMSFSDFLRHYSRLEICNLTPDTLTCDSYKKWKLTKMDGNWRRGSTAGGCRNYPNTFWMNPQYLIKLEEEDEDEEDGGRGCTFLVGLIQKHRRRQRKMGEDMHTIGFGIYEVPEELTGQTNIHLGKNFFLTTRARERSDTFINLREVLNRFKLPPGEYVLVPSTFEPHKDGDFCIRVFSEKKADYQAVDDEIEANIEEIDANEEDIDDGFRRLFVQLAGEDAEISAFELQTILRRVLAKRQDIKSDGFSIETCKIMVDMLDEDGSGKLGLKEFYILWTKIQKYQKIYREIDVDRSGTMNSYEMRKALEEAGFKLPCQLHQVIVARFADDELIIDFDNFVRCLVRLETLFKIFKQLDPENTGTIQLNLASWLSFSVL

How the values were obtained:
[1] = biological target: T1, striatal-enriched protein tyrosine …
[2] = biological target: spectrin, P16546

Protein | STEP33 (cleavage product of STEP), Western blot of retina 3 h after IOP elevation [1] | SBDP levels, immunoblot of mouse retinal extracts 6 h after intravitreal NMDA injection [2]
B1 | STEP33 was present in WT and calpain-1 KO mice (no part of calpain-1) | –
B2 | STEP33 was present in WT and calpain-1 KO mice but not in C2l-injected WT mice following increased IOP | Levels of SBDP were significantly increased; injection of C2l significantly suppressed NMDA-induced changes in SBDP
